PSV in HeLa-ACE2 cells IC50 data for two substances are collected here from patent US20230357364A1.

The assay addresses SARS-CoV-2 spike D614G (pseudovirus) (SARS-CoV-2) (UniProt P0DTC2). Nature of the assay: cell-based or functional assay.

The substance REGN10933 (antibody) returned a PSV in HeLa-ACE2 cells IC50 of 0.009 µg/mL. With REGN10987 (antibody) the figure was 0.019 µg/mL.
